From the supplement of paper PMC9170038

Tested on: MS2 coat protein
Experiment: apparent KD of MS2 coat protein; designed switch direction (-1 OFF switch, 1 ON switch): -1; higher = weaker reporter binding
Summary of the method: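 Stalled E. coli RNA polymerase transcribed designed RNA switches on Illumina chips, which were then titrated with SNAP-549-labelled MS2 coat protein, doubling from 0.7 or 1.5 nM to 3 µM. Steps lasted from 0.8–1.5 h at the lowest concentration to 10–20 min at the highest. The apparent KD is each design's median over clusters of curve-fitted normalised fluorescence.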

[1] = input ligand: microRNA oligo, concentration not stated

Sequence | apparent KD of MS2 coat protein (input ligand: FMN 200 uM) | apparent KD of MS2 coat protein (input ligand: none) | apparent KD of MS2 coat protein [1]
GCACGCAGUGUUAGGAUAUUAAUGGCACCGCAACGUAAGAAGGAACAUGAGGAUCACCCAUGUGUGCUAGAGAA [Eternabot (Original) Solution 14] (Eterna round: R97, puzzle: Brourd's mod of Exclusion 4) | 30.1 nM | 29.5 nM | –
GCACGGAGUGUAGGAUAUCUGUGCGAUUAGCUCAGAGAAGGACAUGAGGAUCACCCAUGUGUGUUCCAAACACAAAAUCCGUGC [Eli exng1 - 065] (Eterna round: R96, puzzle: Exclusion NG 1) | 47.2 nM | 18 nM | 12.8 nM
GCACGGAGUGUAGGAUAUUAGUGCGAUUAGCACUGAGAAGGACAUGAGGAUCACCCAUGUUCCUCAAUAAUUAACCUUCCGUGC [Eli exng1 - 039] (Eterna round: R96, puzzle: Exclusion NG 1) | 16.7 nM | 12.9 nM | 8.49 nM
GCACGGUAAUUCCAUAAAACCACAUGAGGAUCACCCAUGUCUCAGGAUAUGGUCUGGAUUACAGGCCAGAAGGGAGAGCCGUGC [Eli exng3 - 060] (Eterna round: R96, puzzle: Exclusion NG 3) | 10.4 nM | 13.3 nM | 8.88 nM
GCACGGUUGGUAGGAUAUCAUUGCGAUUAGCUAUGAGAAGGACCACAUGAGGAUCACCCAUGUCCUCUAAUUAGCCUACCGUGC [Eli exng1 - 015] (Eterna round: R96, puzzle: Exclusion NG 1) | 383 nM | 151 nM | 109 nM
GCACUCUGCUGGCAGUCGGCUUGUCUUAGAAGGAUAGAUACAUGAGGAUCACCCAUGUUUCGGGUGUCAAUUCUAGC [JR_Sensorv2_tov2_Sub1308] (Eterna round: R96, puzzle: Sensor v2, turn-off variant 2) | 43.9 nM | 42.6 nM | 34.5 nM
GCACUGACAGGAUAUACAUGAGGAUCACCCAUGUGACCCUUAUAGUACUCGCGUACAAGUAGAAGGGUCUGUGC [Omei Ex3 Model Bachelor's Dilema v31] (Eterna round: R97, puzzle: Exclusion 3) | 382 nM | 107 nM | –
GCACUGCGAGGAUAUACAUGAGGAUCACCCAUGUGUCCGCAGCGAUGCGAGUACAAAUGUAGAAGGCGCGUAAA [EX3 #57] (Eterna round: R97, puzzle: Exclusion 3) | 34.1 nM | 14.3 nM | –
GCAGAAAGUGUAGGAUAUAUAAUAAAGCGGAAACGCAAGACAUGAGGAUCACCCAUGUGUCCGGAAUAGAAGGGCAAAAGCUGC [EXNG2 V2 b] (Eterna round: R96, puzzle: Exclusion NG 2) | 29.1 nM | 29.4 nM | 19.9 nM
GCAGAUCAAGUGAGGAUAUGCUCUACCUCGGUAGAGCAGAAGGCACAUGAGGAUCACCCAUGUGAUUGAUCUGC [Omei Ex4B B5] (Eterna round: R97, puzzle: Brourd's mod of Exclusion 4) | 26.9 nM | 19.5 nM | –
GCAGCAAAUUCCACUAAAAUCACAUGAGGAUCACCCAUGUCUCAGGAUAUGGUCUGGAUUACAGGCCAGAAGGGAGAAAGCUGC [Eli exng3 - 057] (Eterna round: R96, puzzle: Exclusion NG 3) | 25.8 nM | 27.6 nM | 23.6 nM
GCAGCAACUCUAACUAACUAAACAUGAGGAUCACCCAUGUCUCAGGAUAUGGUCUGGAUUACAGGCCAGAAGGGAGAAAGCUGC [Eli exng3 - 039] (Eterna round: R96, puzzle: Exclusion NG 3) | 12.6 nM | 14.5 nM | 10.9 nM
GCAGCAACUCUAAUCAAACUAACAUGAGGAUCACCCAUGUCUCAGGAUAUGGUCUGGAUUACAGGCCAGAAGGGAGAAAGCUGC [Eli exng3 - 049] (Eterna round: R96, puzzle: Exclusion NG 3) | 9.04 nM | 14.8 nM | 10.4 nM
GCAGCAUAGAUGAAAGUCUGAUACAUGAGGAUCACCCAUGUACAGGAUAUGGUCUGGAUUACAGGCCAGAAGGGUACAAGCUGC [Eli exng3 - 013] (Eterna round: R96, puzzle: Exclusion NG 3) | 14.4 nM | 12.8 nM | 10.6 nM
GCAGCAUAGUGUAAUAAACACAUACAUGAGGAUCACCCAUGUGAGGAUAUGGACUGGAUUACAGUCCAGAAGGCACAAAGCUGC [Zipper Style 1] (Eterna round: R96, puzzle: Exclusion NG 3) | 18.7 nM | 17.8 nM | 15.9 nM
GCAGCAUAGUUAACAGACUGUUACAUGAGGAUCACCCAUGUACAGGAUAUGGUCUGGAUUACAGGCCAGAAGGGUACAAGCUGC [Eli exng3 - 019] (Eterna round: R96, puzzle: Exclusion NG 3) | 10.1 nM | 11.6 nM | 8.94 nM
GCAGCAUAGUUUACUAACUGUUACAUGAGGAUCACCCAUGUUCAGGAUAUGGUCUGGAUUACAGGCCAGAAGGGAACAAGCUGC [Eli exng3 - 026] (Eterna round: R96, puzzle: Exclusion NG 3) | 7.64 nM | 11.3 nM | 8.42 nM
GCAGCAUAGUUUACUAGCUGUUACAUGAGGAUCACCCAUGUUCAGGAUAUGGUCUGGAUUACAGGCCAGAAGGGAACAAGCUGC [Eli exng3 - 029] (Eterna round: R96, puzzle: Exclusion NG 3) | – | – | 7.99 nM
GCAGCAUAGUUUACUGACUGUUACAUGAGGAUCACCCAUGUUCAGGAUAUGGUCUGGAUUACAGGCCAGAAGGGAACAAGCUGC [Eli exng3 - 030] (Eterna round: R96, puzzle: Exclusion NG 3) | 9.17 nM | 10.6 nM | 10.9 nM
GCAGCGUAUGUAGGAUAUCGGUCAGUUUCUGAUCGAGAAGGACAUGAGGAUCACCCAUGUAAAUUACCGACUUUGUCGGGCUGC [JL ENG1 3.67] (Eterna round: R96, puzzle: Exclusion NG 1) | 16.3 nM | 16.3 nM | 14.7 nM
GCAGCUAAUCGAGGAUAUCAGCACGAUUAGUGCUGAGAAGGCGACAUGAGGAUCACCCAUGUGAUCAAUUAAUAUUAAUGCUGC [ENG1/11-A1] (Eterna round: R96, puzzle: Exclusion NG 1) | 774 nM | 505 nM | 295 nM
GCAGCUAAUCGAGGAUAUCAGCACGUUUAGUGCUGAGAAGGCGACAUGAGGAUCACCCAUGUGAUCAAUUAAUAUUAAUGCUGC [ENG1/11-A2] (Eterna round: R96, puzzle: Exclusion NG 1) | 1270 nM | 659 nM | 344 nM
GCAGCUUAGUUAACAGACUGUUACAUGAGGAUCACCCAUGUGCAGGAUAUGGUCUGGAUUACAGGCCAGAAGGGUACAAGCUGC [Eli exng3 - 016] (Eterna round: R96, puzzle: Exclusion NG 3) | 12.8 nM | 14.2 nM | 9.37 nM
